Reference: US20120270234A1, “DDR2 PROTEIN WITH ACTIVATED KINASE ACTIVITY AND PREPARATION METHOD THEREOF” (KOREA INSTITUTE OF SCIENCE AND TECHNOLOGY, priority 2003, published 2012)

B1: GST-CDK4: fused protein of the GST and the full-length human CDK4 kinase, control (protein)
chain: MATSRYEPVAEIGVGAYGTVYKARDPHSGHFVALKSVRVPNGGGGGGGLPISTVREVALLRRLEAFEHPNVVRLMDVCATSRTDREIKVTLVFEHVDQDLRTYLDKAPPPGLPAETIKDLMRQFLRGLDFLHANCIVHRDLKPENILVTSGGTVKLADFGLARIYSYQMALTPVVVTLWYRAPEVLLQSTYATPVDMWSVGCIFAEMFRRKPLFCGNSEADQLGKIFDLIGLPPEDDWPRDVSLPRGAFPPRGPRPVQSVVPEMEESGAQLLLEMLTFNPHKRISAFRALQHSYLHKDEGNPE
modifications: left off: a dimerising Fc or GST
notes: fused protein of the GST and the full-length human CDK4 kinase, control
B2: GST-Akt1: fused protein of the GST and the full-length mouse Akt1 kinase, control (protein)
chain: MNDVAIVKEGWLHKRGEYIKTWRPRYFLLKNDGTFIGYKERPQDVDQRESPLNNFSVAQCQLMKTERPRPNTFIIRCLQWTTVIERTFHVETPEEREEWATAIQTVADGLKRQEEETMDFRSGSPSDNSGAEEMEVSLAKPKHRVTMNEFEYLKLLGKGTFGKVILVKEKATGRYYAMKILKKEVIVAKDEVAHTLTENRVLQNSRHPFLTALKYSFQTHDRLCFVMEYANGGELFFHLSRERVFSEDRARFYGAEIVSALDYLHSEKNVVYRDLKLENLMLDKDGHIKITDFGLCKEGIKDGATMKTFCGTPEYLAPEVLEDNDYGRAVDWWGLGVVMYEMMCGRLPFYNQDHEKLFELILMEEIRFPRTLGPEAKSLLSGLLKKDPTQRLGGGSEDAKEIMQHRFFANIVWQDVYEKKLSPPFKPQVTSETDTRYFDEEFTAQMITITPPDQDDSMECVDSERRPHFPQFSYSASGTA
modifications: left off: a dimerising Fc or GST
notes: fused protein of the GST and the full-length mouse Akt1 kinase, control
B3: GST-DDR1b CKD: fused protein of the GST and the human DDR1b cytosolic tyrosine kinase domain, control (protein)
chain: VLEEELTVHLSVPGDTILINNRPGPREPPPYQEPRPRGNPPHSAPCVPNGSALLLSNPAYRLLLATYARPPRGPGPPTPAWAKPTNTQAYSGDYMEPEKPGAPLLPPPPQNSVPHYAEADIVTLQGVTGGNTYAVPALPPGAVGDGPPRVDFPRSRLRFKEKLGEGQFGEVHLCEVDSPQDLVSLDFPLNVRKGHPLLVAVKILRPDATKNARNDFLKEVKIMSRLKDPNIIRLLGVCVQDDPLCMITDYMENGDLNQFLSAHQLEDKAAEGAPGDGQAAQGPTISYPMLLHVAAQIASGMRYLATLNFVHRDLATRNCLVGENFTIKIADFGMSRNLYAGDYYRVQGRAVLPIRWMAWECILMGKFTTASDVWAFGVTLWEVLMLCRAQPFGQLTDEQVIENAGEFFRDQGRQVYLSRPPACPQGLYELMLRCWSRESEQRPPFSQLHRFLAEDALNTV
modifications: left off: a dimerising Fc or GST
notes: fused protein of the GST and the human DDR1b cytosolic tyrosine kinase domain, control

Tests used:
c-Src tyrosine kinase = target: T1, c-Src tyrosine kinase (Mus musculus, UniProt P05480, P80A); test: tyrosine phosphorylation on co-expression with c-Src in insect cells, western blotting with phosphorylated tyrosine specific antibody; format: cell-based, Spodoptera frugiperda; details: glutathione bead purified, FIG. 2, FIG. 4
T1 construct: Full length human c-Src gene was per amplified from the vector of pUSE human O-Src wild (Upstate Biotechnology); host or cells: sf9 insect cells co-infected with two recombinant baculoviruses
Excerpt: The results shown in FIG. 4 were obtained by co-expressing a fused protein GST-DDR2 CKD, a fused protein (GST-DDR1b CKD) of the GST and the human DDR1b cytosolic tyrosine kinase domain, a fused protein (GST-Akt1) of the GST and the full-length mouse Akt1 kinase and a fused protein (GST-CDK4) of the GST and the full-length human CDK4 kinase with the c-Src protein without GST tagging in insect cells, respectively; purifying the respective expressed product using glutathione beads; performing SDS-PAGE; and performing the western blotting test using a phosphorylated tyrosine specific antibody and coomassie staining.
The results shown in FIG. 4 have been obtained by co-expressing the full-length c-Src protein together with the fused proteins, GST-DDR2 CKD, GST-DDR1b CKD, GST-Akt1 and GST-CDK4, respectively; in sf9 cells, then performing a western blotting test on each purified GST tagged protein using a phosphorylated tyrosine specific antibody. The presence of a similar amount of each purified GST tagged protein was shown by CBB staining.
GST tagged kinase defective DDR2 cytosolic domain (GST-kd-DDR2-CKD) with intact three tyrosines in the activation loop or with various phenylalanine mutations described in the text were co-expressed with Src in sf9 cells. GST tagged proteins were purified and the same amount of proteins estimated by CBB staining was used for western blotting using P-tyro antibody.
Phospho-tyrosine specific antibody was purchased from Cell Signaling Inc, USA. Specific antibodies to human c-Src, human c-Fyn, and she were obtained from SantaCruz, USA. Samples were boiled for 2 min in 1× lameli sample buffer, and loaded in 10% SDS-PAGE. Proteins were transferred to Immobilon-P membrane (Millipore) and blacked by 10% skim milk in TBS for an hour. The membrane was immunoblotted with antibodies for 2 hours and subsequently washed with 1×TBS five times. Then it was incubated with HRP conjugated secondary antibodies for an hour and protein bands were detected using chemiluminescence kit (Amersham).

sf9 cells = test: tyrosine phosphorylation by H2O2 processing of expressing insect cells, western blotting with phosphorylated tyrosine specific antibody; format: cell-based, Spodoptera frugoperda; details: 200 μM H2O2 for half of an hour; FIG. 2, FIG. 5
Description: The results shown in FIG. 5 were obtained by solely expressing the fused proteins, GST-DDR2 CKD, the GST-DDR1b CKD, the GST-CDK4 and the GST-CDK1, respectively, in insect cells; processing with 200 μM of H2O2 for half of an hour; purifying the respective expressed product using glutathione beads; performing the SDS-PAGE; and performing the western blotting test using an phosphorylated tyrosine specific antibody and coomassie staining.
The results shown in FIG. 5 have been obtained by solely expressing GST-DDR2 CKD, GST-DDR1b CKD, GST-CDK4 and GST-CDK1, respectively in sf9 cells; processing each expressed cells with H2O2 of 200 uM for half of an hour or not; and then purifying the GST tagged protein followed by a western blotting using a phosphorylated tyrosine specific antibody. The presence of a similar amount of each purified GST tagged protein was shown by CBB staining.
The recombinant baculoviruses having the GST-DDR2 CKD coding gene were transfected into sf9 insect cells, by setting MOU to 10 and the cells were cultured for 24 to 72 hours, to express the protein. […], at the concentration of 200 μM was added to the cultured cells. The cells were left for half of an hour, and collected. The collected cells were lysed and the GST-DDR2 CKD was purified from the expressed products, using the glutathione agarose bead column chromatography. The purified protein was subjected to an electrophoresis in 10% polyacrylamaid gel.
After completing the electrophoresis, the protein developed in the gel was transferred to nitrocellulose, and then subjected to a western blotting using a phosphorylated tyrosine specific antibody (Cell signaling Inc, USA), to measure the chemiluminescence signal using x-ray film. For the control, the chemical luminescence of the case without H2O2 processing was measured by the method as mentioned above.

| Molecule | tyrosine phosphorylation induced by co-expression with c-Src (c-Src tyrosine kinase) | tyrosine phosphorylation induced by H2O2 processing (sf9 cells) |
| --- | --- | --- |
| B1 | poorly induced or never induced | poorly induced or never induced |
| B2 | poorly induced or never induced |  |
| B3 | poorly induced or never induced | poorly induced or never induced |
